Paper PMC6550530

B1: varA RNA oligonucleotide (ssRNA)
RNA: AAGUGUGGAGAUACAAGUUUGAUUAGUGUUUUCCUUGUAGAUGAUCACGAGCUGGUUCGCACAGGGAUACGACGUAUUAUUGAAGACGUCCGUGGAAUGAAAGUAGCAGGGGAAGCUGAC
B2: atpI RNA oligonucleotide (ssRNA)
RNA: AAAAUUGUAACUUUUUGCGGUGUUUUCAUUGCAAUCAGUUGAUGCCACCGUAUAAUUUUCGCCAAUUUCCCAGUCCGAAAAAGCGGUUCGAGCUGUGGUGAUUACUAGAGGUAAGAAUAC

Experiments:
[1] = biological target: T1, CsrA (Vibrio cholerae, UniProt Q9KUH3 1-65); assay: EMSA; shift seen at 1.6 nM CsrA, increasing at 8 and 40 nM; LightShift chemiluminescent RNA EMSA kit per manufacturer, 10 ul volume; 12% nondenaturing PAGE; buffer, salt, pH and temperature not stated; settings: protein: recombinant; tags: N-terminal His-TEV tag removed by TEV protease; chain copies: 2; label: 5' biotin
[2] = biological target: T1, CsrA; assay: EMSA; CsrA up to 40 nM; LightShift chemiluminescent RNA EMSA kit per manufacturer, 10 ul volume; 12% nondenaturing PAGE; buffer, salt, pH and temperature not stated; settings: protein: recombinant; tags: N-terminal His-TEV tag removed by TEV protease; chain copies: 2; label: 5' biotin

T1 sequence (Q9KUH3 whole entry): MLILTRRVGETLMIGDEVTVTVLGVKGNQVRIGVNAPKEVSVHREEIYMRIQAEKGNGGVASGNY

Binder	binding result [1]	binding result [2]
B1	binds	
B2		no binding
